In doi:10.1101/2025.07.20.665809 (bioRxiv, 2025):
Numbering of substitutions follows the chain as printed.

Target: the molecule itself
Test: cross-linking

B1: His-hArc/Arg3.1 (recombinant human activity-regulated cytoskeleton-associated protein), wild type (natural protein, UniProt Q7LC44 2-396, looked up)
chain: ELDHRTSGGLHAYPGPRGGQVAKPNVILQIGKCRAEMLEHVRRTHRHLLAEVSKQVERELKGLHRSVGKLESNLDGYVPTSDSQRWKKSIKACLCRCQETIANLERWVKREMHVWREVFYRLERWADRLESTGGKYPVGSESARHTVSVGVGGPESYCHEADGYDYTVSPYAITPPPAAGELPGQEPAEAQQYQPWVPGEDGQPSPGVDTQIFEDPREFLSHLEEYLRQVGGSEEYWLSQIQNHMNGPAKKWWEFKQGSVKNWVEFKKEFLQYSEGTLSREAIQRELDLPQKQGEPLDQFLWRKRDLYQTLYVDADEEEIIQYVVGTLQPKLKRFLRHPLPKTLEQLIQRGMEVQDDLEQAAEPAGPHLPVEDEAETLTPAPNSESVASDRTQPE
- binding result: binds

B2: His-hArc/Arg3.1 C94/98A (natural protein, human, UniProt Q7LC44 2-396, looked up)
chain: B1 chain with C93A, C97A
- binding result: binds
